In patent US20260116958A1 (University of California, published 2026):

T1: active BoNT/G holotoxin (Clostridium botulinum, UniProt Q60393 2-1297)
T1 sequence: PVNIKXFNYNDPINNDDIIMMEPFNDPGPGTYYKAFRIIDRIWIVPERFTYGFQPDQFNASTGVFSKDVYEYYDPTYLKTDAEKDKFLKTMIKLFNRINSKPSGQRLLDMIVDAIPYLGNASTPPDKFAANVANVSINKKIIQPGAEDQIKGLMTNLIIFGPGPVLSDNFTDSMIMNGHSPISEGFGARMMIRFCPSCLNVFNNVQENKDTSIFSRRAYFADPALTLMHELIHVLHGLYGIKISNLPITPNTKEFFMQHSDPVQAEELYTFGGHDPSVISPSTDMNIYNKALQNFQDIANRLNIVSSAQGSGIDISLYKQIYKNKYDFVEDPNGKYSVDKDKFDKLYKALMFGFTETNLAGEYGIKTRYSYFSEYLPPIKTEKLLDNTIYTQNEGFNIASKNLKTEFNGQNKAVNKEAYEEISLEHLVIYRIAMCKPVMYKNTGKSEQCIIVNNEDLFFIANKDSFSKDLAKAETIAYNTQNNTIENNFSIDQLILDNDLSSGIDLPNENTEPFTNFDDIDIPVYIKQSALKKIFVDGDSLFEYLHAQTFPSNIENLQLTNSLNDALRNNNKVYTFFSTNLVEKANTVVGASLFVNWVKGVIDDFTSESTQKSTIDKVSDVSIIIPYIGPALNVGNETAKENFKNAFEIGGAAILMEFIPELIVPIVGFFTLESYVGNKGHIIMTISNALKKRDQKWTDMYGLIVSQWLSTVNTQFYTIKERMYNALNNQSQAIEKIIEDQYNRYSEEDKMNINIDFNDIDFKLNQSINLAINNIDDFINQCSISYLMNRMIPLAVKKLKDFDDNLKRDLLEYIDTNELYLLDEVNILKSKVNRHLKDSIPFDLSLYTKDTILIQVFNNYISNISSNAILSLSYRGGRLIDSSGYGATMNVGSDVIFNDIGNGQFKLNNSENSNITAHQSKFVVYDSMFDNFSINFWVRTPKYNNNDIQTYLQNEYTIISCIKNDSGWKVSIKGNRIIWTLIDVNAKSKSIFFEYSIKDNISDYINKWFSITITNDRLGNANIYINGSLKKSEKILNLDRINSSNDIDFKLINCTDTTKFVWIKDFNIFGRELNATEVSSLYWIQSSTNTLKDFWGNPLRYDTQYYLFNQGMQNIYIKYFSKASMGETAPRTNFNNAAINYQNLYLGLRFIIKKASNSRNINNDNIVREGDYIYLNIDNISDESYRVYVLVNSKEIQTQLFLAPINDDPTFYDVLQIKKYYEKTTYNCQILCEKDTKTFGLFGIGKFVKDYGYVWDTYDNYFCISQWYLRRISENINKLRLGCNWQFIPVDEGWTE

T2: inactive BoNT/G (BoNT/Gi) (Clostridium botulinum, UniProt Q60393 1-1297)
T2 sequence: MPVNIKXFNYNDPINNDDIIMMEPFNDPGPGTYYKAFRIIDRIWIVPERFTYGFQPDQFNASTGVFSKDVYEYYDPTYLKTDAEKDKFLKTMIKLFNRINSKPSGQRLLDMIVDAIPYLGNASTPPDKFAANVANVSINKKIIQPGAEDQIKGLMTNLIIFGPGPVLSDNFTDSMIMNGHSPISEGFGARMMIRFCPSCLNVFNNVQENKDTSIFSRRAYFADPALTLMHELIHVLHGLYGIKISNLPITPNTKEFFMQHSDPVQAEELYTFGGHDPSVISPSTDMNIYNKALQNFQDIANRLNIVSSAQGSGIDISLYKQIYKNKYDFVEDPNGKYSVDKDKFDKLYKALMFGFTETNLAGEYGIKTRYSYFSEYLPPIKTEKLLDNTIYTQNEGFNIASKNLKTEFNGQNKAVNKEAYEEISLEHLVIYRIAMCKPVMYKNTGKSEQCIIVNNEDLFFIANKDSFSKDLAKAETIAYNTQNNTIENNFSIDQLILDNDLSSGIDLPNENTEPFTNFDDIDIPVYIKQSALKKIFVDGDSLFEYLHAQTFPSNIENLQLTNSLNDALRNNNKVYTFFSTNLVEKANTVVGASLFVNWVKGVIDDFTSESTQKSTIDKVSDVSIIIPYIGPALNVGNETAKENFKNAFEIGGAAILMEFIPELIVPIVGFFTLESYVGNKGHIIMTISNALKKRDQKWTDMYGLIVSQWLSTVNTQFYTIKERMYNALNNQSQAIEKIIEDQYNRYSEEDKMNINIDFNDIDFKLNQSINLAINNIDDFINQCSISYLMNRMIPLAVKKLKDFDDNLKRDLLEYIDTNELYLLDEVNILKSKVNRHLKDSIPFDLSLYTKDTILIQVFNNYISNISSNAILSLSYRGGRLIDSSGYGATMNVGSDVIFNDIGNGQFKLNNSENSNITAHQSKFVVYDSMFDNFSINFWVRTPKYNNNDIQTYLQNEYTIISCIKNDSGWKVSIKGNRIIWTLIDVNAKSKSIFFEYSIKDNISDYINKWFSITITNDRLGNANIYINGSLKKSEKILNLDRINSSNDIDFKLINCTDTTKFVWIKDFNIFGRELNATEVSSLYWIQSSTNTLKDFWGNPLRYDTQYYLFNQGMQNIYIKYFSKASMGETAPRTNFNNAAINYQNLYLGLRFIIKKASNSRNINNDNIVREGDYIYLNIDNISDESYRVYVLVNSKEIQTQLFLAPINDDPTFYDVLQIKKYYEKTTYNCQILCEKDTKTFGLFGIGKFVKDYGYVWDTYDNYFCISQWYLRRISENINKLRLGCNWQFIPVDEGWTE


Legend:
[1] = biological target: inactive BoNT/G (BoNT/Gi) (Clostridium botulinum) (UniProt Q60393); assay: flow cytometry, scFv on yeast; against hu6G6 Wt
[2] = biological target: inactive BoNT/G (BoNT/Gi) (Clostridium botulinum) (UniProt Q60393); assay: flow cytometry, scFv on yeast
[3] = biological target: T1, active BoNT/G holotoxin
[4] = biological target: T2, inactive BoNT/G (BoNT/Gi); assay: flow cytometry, scFv on yeast

Binder | Improvement over WT [1] | Kd [2] | Kd [3] | fold lower affinity than murine 6G7.1 [4]
hu6G6 variant A3 scFv (scFv) scFv: QVQLVQSGAEVKKPGASVKLSCKASGFNIKDTYMHWVRQAPGQGLEWIGRIDPANGNTKYDPKFQGRATITAGTSINTAYLELSRLRSDDTAVYYCASGPNYYGTTWFAYWGQGTTVTVSSVDLKSGGSTSGSGKPGSGEGSSGSARKIVLTQSPSTLSASVGDRVTITCRASHGISNYLAWYQQKPGRAPKLLIYKASTLHIGVPSRFSGSGSGTEFALTISSLQPDDFSTYYCQQYISYLPHTFGQGTRLEIK | 4.5 fold | 5.18 nM |  | 
hu6G6 variant A4 scFv (scFv) scFv: QVQLVQSGAEVKKPGASVKLSCKASGFNIKDTYMHWVRQAPGQGLEWIGRIDPENGNTKYDPKFQGRATITAYKSINTAYLELSRLRSDDTAVYYCASGPNYYGTTWFAYWGQGTTVTVSSVDLKSGGSTSDSGKPGSGEGSSGSAREIVLTQSPSTLSASVGDRVTITCRASHGISNYLAWYQQKPGRAPKLLIYKASTLHIGVPSRFSGSGSGTEFALTISSLQPDDFSTYYCQQYNSYLPHTFGQGTRLEIK | 6.8 fold | 3.46 nM |  | 
hu6G6 variant A3.1 scFv (scFv) scFv: QVQLVQSGAEVKKPGASVKLSCKASGFNIKDTYMHWVRQAPGQGLEWIGRIDPANGNTKYDPKFQGRATITAGTSINTAYLELSRLRSDDTAVYYCASGPNYYGTTWFAYWGQGTTVTVSSVDLKSGGSTSGSGKPGSGEGSSGSAREIVLTQSPSTLSASVGDRVTITCRASHGISNYLAWYQQKPGRAPKLLIYKASTLHIGVPSRFSGSGSGTEFALTISSLQPDDFSTYYCQQYNSYLPHTFGQGTRLEIK | 3.5 fold | 6.5 nM |  | 
hu6G6 variant B8 scFv (scFv) scFv: QVQLVQSGAEVNKPGASVKLSCKASGFNIKDTYMHWVRQAPGQGLEWIGRIDPANGNTKYDPKFQGRATITAYTSFNTAYLELSRLRSDDTAVYYCASGPNYYGTTWFAYWGQGSTVTVSSVDLKSGGSTSGSGKPGSGEGSSGSAREIVLTQSPSTLSASVGDRVTITCRASHGISNYLAWYQQKPGRAPKLLIYKASTLHIGVPSRFSGSGSGTEFALTISSLQPDDFSTYYCQQYNSYLPHTFGQGTRLEIK | 6.2 fold | 3.75 nM |  | 
hu6G6 variant B8.1 scFv (scFv) scFv: QVQLVQSGAEVNKPGASVKLSCKASGFNIKDTYMHWVRQAPGQGLEWIGRIDPANGNTKYDPKFQGRATITAYTSFNTAYLELSRLRSDDTAVYYCASGPNYYGTTWFAYWGQGTTVTVSSVDLKSGGSTSGSGKPGSGEGSSGSAREIVLTQSPSTLSASVGDRVTITCRASHGISNYLAWYQQKPGRAPKLLIYKASTLHIGVPSRFSGSGSGTEFALTISSLQPDDFSTYYCQQYNSYLPHTFGQGTRLEIK | 4.3 fold | 5.43 nM |  | 
hu6G6.1 IgG (antibody, V domains shown) VH: QVQLVQSGAEVKKPGASVKLSCKASGFNIKDTYMHWVRQAPGQGLEWIGRIDPENGNTKYDPKFQGRATITAYKSINTAYLELSRLRSDDTAVYYCASGPNYYGTTWFAYWGQGTTVTVSS VL: EIVLTQSPSTLSASVGDRVTITCRASHGISNYLAWYQQKPGRAPKLLIYKASTLHIGVPSRFSGSGSGTEFALTISSLQPDDFSTYYCQQYNSYLPHTFGQGTRLEIKR |  |  | 0.476 nM | 
Hu6G7.1 scFv (scFv, V domains shown) VH: QVQLVQSGAEVKKPGASVKVSCKASDYSFTDYNIYWVRQTPGQGLEWIGYIDPYNGGTSYNQKFKGRATLTVDKSISTAYMELSRLRSDDTAVYYCALYGYDPDYIDYWGQGTTLTVSS VL: DIVLTQSPASMAVSPGQRVTITCSASSSVSYLHWFQQKPGQSPKLWIYSTSNLASGVPARFSGSGSGTDYTLTINPMEAEDTATYYCQQRSSYPYTFGQGTKLEIKR |  |  |  | 10 fold
